Assay results taken from the supplement of paper PMC9170038.

Tested on: MS2 coat protein
Test: apparent KD of MS2 coat protein; designed switch direction (-1 OFF switch, 1 ON switch): -1; higher = weaker reporter binding
Method in brief: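 The buffer was Tris-HCl pH 7.5 with KCl, MgCl2, BSA, DTT, tRNA and Tween-20. In it, SNAP-549-labelled MS2 coat protein was titrated in doubling steps from 0.7 or 1.5 nM to 3 µM over chip-bound RNA switches transcribed by stalled E. coli RNA polymerase on Illumina chips. Apparent KD is the per-design median over clusters of curve fits to normalised fluorescence.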

[1] = input ligand: microRNA oligo, concentration not stated
[2] = Eterna round: R95, input ligand: FMN 200 uM
[3] = Eterna round: R95, input ligand: microRNA oligo, concentration not stated
[4] = Eterna round: R95, input ligand: none

| Sequence | apparent KD of MS2 coat protein (input ligand: FMN 200 uM) [nM] | apparent KD of MS2 coat protein [1] [nM] | apparent KD of MS2 coat protein (input ligand: none) [nM] | apparent KD of MS2 coat protein [2] [nM] | apparent KD of MS2 coat protein [3] [nM] | apparent KD of MS2 coat protein [4] [nM] |
| --- | --- | --- | --- | --- | --- | --- |
| AAAAAAAAGAUAGGAUAUUAGAAAAAAAUGGUGAUAGAGACAUGAGGAUCACCCAUGUAAAAAAAUAAGAAGGGUCAAAAAAAA [AK ExNG2-V2-5] (Eterna round: R96, puzzle: Exclusion NG 2) | 322 | 298 | 362 |  |  |  |
| AAAAAACAUGAGGAUCACCCAUGUGAGGAUAUGAUGCGAAUAAAGAAAGAAGAAAGCAUCAGAAGGCACAUAUG [Mod of Disincluded 3 (little more stable fmn state)] (Eterna round: R96, puzzle: Exclusion 1) |  | 66.6 |  |  |  |  |
| AAAAAGGCAGGAUAUACGAGUCAAAGAAAAGACAAAAAGGGACAUGAGGAUCACCCAUGUAGAAGGGCCAAAAA [Fiskers exclusion D2 62% 4] (Eterna round: R96, puzzle: Exclusion 2) |  | 31.9 |  |  |  |  |
| AAAAAGGUAGGAUAUACGAAAAAAAAGGGUAGAAAAAAAACACAUGAGGAUCACCCAUGUAGAAGGACCAAAAG [salish99_ex2_r3_045] (puzzle: Exclusion 2) |  |  |  | 58.7 | 32 | 28.4 |
| AAAACGGUUCUCGUGAGGUACAUGAGGAUCACCCAUGUGAGUCAGGAUAUCCCGUCCAAGUGCGAGGAGAAGGGACGCACUUGG [Esesence] (Eterna round: R96, puzzle: Exclusion NG 3) | 190 | 103 | 110 |  |  |  |
| AAAAGAUAAGGAUAUUGAAGGUUCGACAUGAGGAUCACCCAUGUUAUGUUGGAAAAGGGACAAGAAGGUAUGAAAU [salish99_ex5_r4_202] (Eterna round: R97, puzzle: Exclusion 5) | 28.6 |  | 29.1 |  |  |  |
| AAAAGUCCGGAGGAUAUCCACAAGCUCGGGAAAGGAGAAGGCCGGACAUGAGGAUCACCCAUGUGUCUUCUUGC [Rebila] (puzzle: Exclusion 6) |  |  |  | 358 | 63 | 94.5 |
| AAAAGUUAAGGAUAUACUUGAGGAUCACCCAAGUAGGUGGCUUCAGCCGGGAAACGGCGUAGAAGGUAGCAGAA [Atorin] (Eterna round: R97, puzzle: Exclusion 3) | 65.2 |  | 60.5 |  |  |  |
| AAAAUACAAGCAAGAUCCUACAUGAGGAUCACCCAUGUGCUCGUCUUAUAAAGUACUAUCACGAAAGUGAUAGUACA [Mat - Sensor v3 - turn-off var 1 - Eli Mod - D59] (puzzle: Sensor v3, turn-off variant 1) |  |  |  | 256 | 43.1 | 415 |
| AAAAUGGUCUAGGAUAUGACAAAUCUGAUCACGUCAGAAGGAGACACAUGAGGAUCACCCAUGUGGGUGCGAAA [Qureenan] (puzzle: Exclusion 6) |  |  |  | 130 | 44.4 | 39.5 |
| AAACACGGAGGAUAUACAGGUUCAGGAAACCGAACCGGCUGACAUGAGGAUCACCCAUGUAGAAGGCCGAAAUA [EX2 A.23] (Eterna round: R97, puzzle: Exclusion 2) | 19.5 |  | 20.9 |  |  |  |
| AAACAGGGAGGAUAUACAUGAGGAUCACCCAUGUUCGAGCGUCCUUGAGCUACCUCAGGUAGAAGGCCCAAAAG [Qubeon] (Eterna round: R97, puzzle: Exclusion 3) | 151 |  | 32.9 |  |  |  |
| AAACCAAUAGUCAGGAUAUCUUAGUCGCGGAUGUGGGAGAAGGGACAUGAGGAUCACCCAUGUGGGAGUAUGUG [Eternabot (L1) Solution 19] (Eterna round: R97, puzzle: Brourd's mod of Exclusion 4) | 116 |  | 122 |  |  |  |
| AAACCCGCGCGAGGAUAUCACAUGAGGAUCACCCAUGUGGCACUCCGUCACCGGGCAGUCCCGAGUGAGAAGGUGCAGGCGGAA [Entereis] (Eterna round: R96, puzzle: Exclusion NG 2) | 27.5 | 32.4 | 23.4 |  |  |  |
| AAACCUAAUGUUAGGAUAUGCUUCGGGCUUCCGCUGCAGAAGGAACAUGAGGAUCACCCAUGUCAAAUAAAAUC [JL-BMX4-4.39 ViennaUCT mod] (Eterna round: R97, puzzle: Brourd's mod of Exclusion 4) | 81.8 |  | 17.6 |  |  |  |
| AAACGGCAUAGAGGAUAUGCUUACCUGGGUCGUCUUCAAACAUGAGGAUCACCCAUGUAGUCGACGCAGAAGGUUAUCAAAGCC [ExNG2 2nd] (Eterna round: R96, puzzle: Exclusion NG 2) | 16 | 12.2 | 17.9 |  |  |  |
| AAACGUGCGAAGGAUAUCCAUCCACCCUGGAAAGGAGAAGGUCGCACAUGAGGAUCACCCAUGUGUGCCUAAAA [Zalave] (puzzle: Exclusion 6) |  |  |  | 26.6 | 11.4 | 11.8 |
| AAAGAACAUGAGGAUCACCCAUGUGAGGAUAUCGAGAAAAGAAAGAAGAAGAAGAAAACGAGAAGGCACAAGAA [The design that might work] (puzzle: Exclusion 1) |  |  |  | 43.7 | 65 | 56.9 |
| AAAGAACAUGAGGAUCACCCAUGUGAGGAUAUGUAAGGAUUGUGGAGAAGAAGAGAGAACAGAAGGCACGGAGG [JR_Exclu1_Sub068] (puzzle: Exclusion 1) |  |  |  | 36.8 | 32.1 | 44.9 |
| AAAGAAGAGAGAAAAUAACACAUGAGGAUCACCCAUGUGAGAAGUUGAGGGUGAUACAGGCUUUAUGCUCGUCUUAU (puzzle: Sensor v3, turn-off variant 1) |  |  |  | 173 | 204 |  |
| AAAGACAGAGGAUAUGCACGCCGACCCGGGCGGGAAGUCGGACAUGAGGAUCACCCAUGUAGAAGGCUGAGAAA [Exclss2-VII] (puzzle: Exclusion 2) |  |  |  |  | 10.5 |  |
| AAAGAGCGAGGAUAUGCGUGCCGGUGCGGCCAGCCGAUGUGACAUGAGGAUCACCCAUGUAGAAGGCGCAGAAA [Excls2-VIII] (puzzle: Exclusion 2) |  |  |  |  | 12.8 |  |
| AAAGGCUCAGGAUAUGCCCAGGAAGACAUGAGGAUCACCCAUGUACUACGGGUGUCAUACGCAGAAGGGAGAUAGA [EX5 C.28] (Eterna round: R97, puzzle: Exclusion 5) | 25.1 |  | 28.7 |  |  |  |
| AAAUAAAAACAAGCAAAACACAUGAGGAUCACCCAUGUAAAGGGUGAAGUUCGCACCCAAAAAUAAAAUAAAUAAAA [another turnoff var 1st] (Eterna round: R96, puzzle: Sensor v2, turn-off variant) | 26.7 | 29.8 | 24.9 |  |  |  |
| AAAUAAAACAAGCAAUAAAACAUGAGGAUCACCCAUGUAAAGGGUGAAGUUCGCACCCAAAAAUAAAAUAAAUAAAA [Denovo Take 6, 5] (Eterna round: R96, puzzle: Sensor v2, turn-off variant) | 22.1 | 39.6 | 25 |  |  |  |
| AAAUAACAAGCGAGAUCCUACAUGAGGAUCACCCAUGUGCUCGUCUUAACAAGUACUAUCACGAAAGUGAUAGUACA [Mat - Sensor v3 - turn-off var 1 - Eli Mod - D69] (puzzle: Sensor v3, turn-off variant 1) |  |  |  | 17.5 | 59.4 | 12.1 |
| AAAUACAAGUAAAGAUCUUACAUGAGGAUCACCCAUGUGCUCGUCUUAUAAAGUACUAUCACGAAAGUGAUAGUACA [Sensor 3, v1 - 25] (puzzle: Sensor v3, turn-off variant 1) |  |  |  | 15.9 | 159 | 18.4 |
| AAAUAGGGAGGAUAUCCAAUAUAUGACAUGAGGAUCACCCAUGUUUCCACUCGUACCUCCGGAGAAGGCCCAUAAU [Ex5 #2] (Eterna round: R97, puzzle: Exclusion 5) | 25.8 |  | 23.9 |  |  |  |
| AAAUUGGUAGAGGAUAUUGUACAGGAAACGGUGCGAGAAGGUUGCACAUGAGGAUCACCCAUGUUUAGUUGCGA [EX6 #47] (Eterna round: R97, puzzle: Exclusion 6) | 27.2 |  | 32.4 |  |  |  |
| AACAAGUCAGGAUAUGCCCUGAUAGACUUGAGGAUCACCCAAGUAAGUCUAUCUGGCUAAGCAGAAGGGACAAAAG [Usrabe] (Eterna round: R97, puzzle: Exclusion 5) | 643 |  | 649 |  |  |  |
